Source: patent US20180038857A1 (published 2018)
Bridge positions count the residues as written; N and C are the ends. * marks the point of attachment. Biotin = O=C1N[C@H]2[C@H](CS[C@H]2CCCCC(=O)*)N1

Experiments:
Assay in all cases: cell depletion on chemokine-streptavidin Sepharose column, flow cytometry for CCR1, 3 and 5-expressing cells
hCCR3 = target: T1, hCCR3 (human, UniProt P51677 1-355)
T1 construct: whole, on cells
T1 sequence (looked up): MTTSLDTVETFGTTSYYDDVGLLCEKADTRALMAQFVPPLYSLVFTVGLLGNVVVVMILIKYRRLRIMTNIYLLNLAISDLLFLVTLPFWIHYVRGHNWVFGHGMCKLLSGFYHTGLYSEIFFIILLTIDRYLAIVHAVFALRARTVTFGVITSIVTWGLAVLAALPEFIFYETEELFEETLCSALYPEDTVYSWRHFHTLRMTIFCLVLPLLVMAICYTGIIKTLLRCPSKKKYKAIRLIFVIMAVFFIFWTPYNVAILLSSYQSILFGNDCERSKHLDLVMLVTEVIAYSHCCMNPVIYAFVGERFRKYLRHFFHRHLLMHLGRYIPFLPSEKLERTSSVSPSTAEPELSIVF
Protocol: (§1) To investigate the ability to eliminate CCR1, 3 and 5-expressing cells, in vitro tests have been performed on the biotinylated RANTES coupled matrix. Blood was collected from blood donors and passed through the column device containing biotinylated RANTES coupled matrix. Blood samples were taken before and after column passage and analyzed by flow cytometry (FACS) for the depletion of CCR1, 3 and 5-expressing cells.
(§2) Depletion tests were performed on blood from a healthy donor.

hCCR5 = target: T2, hCCR5 (human, UniProt P51681 1-352)
T2 construct: whole, on cells
Protocol: as §1, §2

CCR1 = target: T3, CCR1 (human, UniProt P32246 1-355)
T3 construct: whole, on cells; Endogenous receptor on blood cells in the RANTES depletion test
T3 sequence (looked up): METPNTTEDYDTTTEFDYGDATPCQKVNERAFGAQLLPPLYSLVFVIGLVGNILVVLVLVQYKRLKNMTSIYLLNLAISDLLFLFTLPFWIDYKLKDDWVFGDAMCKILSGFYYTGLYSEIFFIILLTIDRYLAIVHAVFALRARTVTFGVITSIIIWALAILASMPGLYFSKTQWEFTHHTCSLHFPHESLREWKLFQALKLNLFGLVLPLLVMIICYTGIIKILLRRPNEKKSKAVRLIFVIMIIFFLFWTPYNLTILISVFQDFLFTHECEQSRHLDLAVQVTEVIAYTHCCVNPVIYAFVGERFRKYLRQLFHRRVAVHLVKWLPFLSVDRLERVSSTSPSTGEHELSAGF
Protocol: as §1, §2

Measured: reduction of chemokine receptor-expressing cells by the column

T2 sequence (P51681 whole entry): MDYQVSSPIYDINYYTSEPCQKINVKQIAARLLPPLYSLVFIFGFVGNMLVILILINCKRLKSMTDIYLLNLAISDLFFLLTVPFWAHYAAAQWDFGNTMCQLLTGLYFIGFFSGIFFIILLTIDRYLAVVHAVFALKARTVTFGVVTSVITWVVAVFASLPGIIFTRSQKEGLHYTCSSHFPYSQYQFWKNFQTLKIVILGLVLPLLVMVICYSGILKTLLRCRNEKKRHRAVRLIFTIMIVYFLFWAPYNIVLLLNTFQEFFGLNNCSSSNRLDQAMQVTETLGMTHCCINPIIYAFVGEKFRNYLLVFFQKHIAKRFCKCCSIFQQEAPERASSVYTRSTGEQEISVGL

B1: biotinRANTES (CCL5): RANTES derivatised at the ε-amino side chain functionality of Lys(67) with Biotin (ligand)
chain: H-SPYSSDTTPCCFAYIARPLPRAHIKEYFYTSGKCSNPAVVFVTRKNRQVCANPEKKWVREYINSLEK(Biotin)S-OH
modifications: disulfide 10-34, 11-50; also: TFA salt
notes: It is treated here as the same molecule; also called biotinylated RANTES
~20%: all assays above
